B1: CPEB3 Ribozyme (parent)
chain: GGGGGCCACAGCAGAAGCGUUCACGUCGCGGCCCCUGUCAGAUUCUGGUGAAUCUGCGAAUUCUGCUGU

Variants of: B1
Assay: self-cleavage, relative activity (ratio to wild type); higher = more cleavage; co-transcriptional

Variant	self-cleavage
GGGGGCCACAGCAGAAGCGUUCACGUCGCGGCCGUUGUCAGAUUCUGGUGAAUCUGCGAAUUCUGCUGU	0.29
GGGGGCCACAGCAGAAGCGUUCACGUCGCGGCCGGUGUCAGAUUCUGGUGAAUCUGCGAAUUCUGCUGU	0.244
GGGGGCCACAGCAGAAGCGUUCACGUCGCGGCCGAUGUCAGAUUCUGGUGAAUCUGCGAAUUCUGCUGU	0.196
GGGGGCCACAGCAGAAGCGUUCACGUCGCGGCCGCUAUCAGAUUCUGGUGAAUCUGCGAAUUCUGCUGU	0.24
GGGGGCCACAGCAGAAGCGUUCACGUCGCGGCCGCUUUCAGAUUCUGGUGAAUCUGCGAAUUCUGCUGU	0.171
GGGGGCCACAGCAGAAGCGUUCACGUCGCGGCCGCUGUCAGAUUAUGGUGAAUCUGCGAAUUCUGCUGU	0.641
GGGGGCCACAGCAGAAGCGUUCACGUCGCGGCCGCUGUCAGAUUGUGGUGAAUCUGCGAAUUCUGCUGU	0.604
GGGGGCCACAGCAGAAGCGUUCACGUCGCGGCCGCUGUCAGAUUUUGGUGAAUCUGCGAAUUCUGCUGU	0.746
GGGGGCCACAGCAGAAGCGUUCACGUCGCGGCCGCUGUCAGAUUCUGGUGAAUCUGGGAAUUCUGCUGU	0.332
GGGGGCCACAGCAGAAGCGUUCACGUCGCGGCCUCUGUCAGAUUCUGGUGAAUCUGCGAAUUCUGCUGU	0.991
GGGGGCCACAGCAGAAGCGUUCACGUCGCGGCCGCUGUCAGAUUCUGGUGAAUCUGCGAAUUGUGCUGU	0.338
GGGGGCCACAGCAGAAGCGUUCACGUCGCGGCCGCUGUCCGAUUCUGGUGAAUCUGCGAAUUCUGCUGU	0.326
GGGGGCCACAGCAGAAGCGUUCACGUCGCGGCCGCUGUCGGAUUCUGGUGAAUCUGCGAAUUCUGCUGU	0.631
GGGGGCCACAGCAGAAGCGUUCACGUCGCGGCCGCUGUCUGAUUCUGGUGAAUCUGCGAAUUCUGCUGU	0.417
GGGGGCCACAGCAGAAGCGUUCACGUCGCGGCCGCUGUCAGAUUCUGGUGAAUCUGCGUAUUCUGCUGU	0.234
GGGGGCCACAGCAGAAGCGUUCACGUCGCGGCCGCUGUCAGAUUCUGGUGAAUCUGCGGAUUCUGCUGU	0.538
GGGGGCCACAGCAGAAGCGUUCACGUCGCGGCCGCUGUCAGAUUCUGAUGAAUCUGCGAAUUCUGCUGU	0.765
GGGGGCCACAGCAGAAGCGUUCACGUCGCGGCCGCUGUCAGAUUCUGUUGAAUCUGCGAAUUCUGCUGU	0.753
GGGGGCCACAGCAGAAGCGUUCACGUCGCGGCCGCUGUCAGAUUCUGCUGAAUCUGCGAAUUCUGCUGU	0.722
GGGGGCCACAGCAGAAGCGUUCACGUCGCGGCCGCGGUCAGAUUCUGGUGAAUCUGCGAAUUCUGCUGU	0.263
GGGGGCCACAGCAGAAGCGUUCACGUCGCGGCCGCCGUCAGAUUCUGGUGAAUCUGCGAAUUCUGCUGU	0.819
GGGGGCCACAGCAGAAGCGUUCACGUCGCGGCCGCUGUCAGAUUCUGGUGAUUCUGCGAAUUCUGCUGU	0.661
GGGGGCCACAGCAGAAGCGUUCACGUCGCGGCCGCUGUAAGAUUCUGGUGAAUCUGCGAAUUCUGCUGU	0.394
GGGGGCCACAGCAGAAGCGUUCACGUCGCGGCCGCUGUCAGAUUCUGGUGAAUCUGCGAAUUCUGGUGU	0.434
GGGGGCCACAGCAGAAGCGUUCACGUCGCGGCCGCUGUCAGAUUCUGGUGAAUCUGCGAACUCUGCUGU	0.423
GGGGGCCACAGCAGAAGCGUUCACGUCGCGGCCGCUGUCAGCUUCUGGUGAAUCUGCGAAUUCUGCUGU	0.317

Variant	self-cleavage
GGGGGCCACAGCAGAAGCGUUCACGUCGCGGCCGCUGUCACAUUCUGGUGAAUCUGCGAAUUCUGCUGU	0.296
GGGGGCCACAGCAGAAGCGUUCACGUCGCGGCCGCUGUCAAAUUCUGGUGAAUCUGCGAAUUCUGCUGU	0.318
GGGGGCCACAGCAGAAGCGUUCACGUCGCGGCCGCUGUCAUAUUCUGGUGAAUCUGCGAAUUCUGCUGU	0.33
GGGGGCCACAGCAGAAGCGUUCACGUCGCGGCCGCUGUCAGAUUCUGGUGAAGCUGCGAAUUCUGCUGU	0.27
GGGGGCCACAGCAGAAGCGUUCACGUCGCGGCCGCUGUCAGAUUCUGGUGAACCUGCGAAUUCUGCUGU	0.562
GGGGGCCACAGCAGAAGCGUUCACGUCGCGGCCGCUGACAGAUUCUGGUGAAUCUGCGAAUUCUGCUGU	0.733
GGGGGCCACAGCAGAAGCGUUCACGUCGCGGCCGCUGUCAGAUUCUGGUGAAUUUGCGAAUUCUGCUGU	0.708
GGGGGCCACAGCAGAAGCGUUCACGUCGCGGCCGCUGUCAGAUUCUGGUGAAUGUGCGAAUUCUGCUGU	0.343
GGGGGCCACAGCAGAAGCGUUCACGUCGCGGCCGCUGUCAGAUUCUGGUGAAUAUGCGAAUUCUGCUGU	0.368
GGGGGCCACAGCAGAAGCGUUCACGUCGCGGCCGCUGUCAGAUUCUGGUCAAUCUGCGAAUUCUGCUGU	0.64
GGGGGCCACAGCAGAAGCGUUCACGUCGCGGCCGCUGUCAGAUUCUGGUUAAUCUGCGAAUUCUGCUGU	0.839
GGGGGCCACAGCAGAAGCGUUCACGUCGCGGCCGCUGUCAGAUUCUGGUGAAUCUUCGAAUUCUGCUGU	0.538
GGGGGCCACAGCAGAAGCGUUCACGUCGCGGCCGCUGUCAGAUUCUGGUGAAUCUACGAAUUCUGCUGU	0.579
GGGGGCCACAGCAGAAGCGUUCACGUCGCGGCCGCUGUCAGAUGCUGGUGAAUCUGCGAAUUCUGCUGU	0.446
GGGGGCCACAGCAGAAGCGUUCACGUCGCGGCCGCUGUCAGAUCCUGGUGAAUCUGCGAAUUCUGCUGU	0.578
GGGGGCCACAGCAGAAGCGUUCACGUCGCGGCCGCUGUCAGAUUCUGGUGAAUCUGCGAAUACUGCUGU	0.453
GGGGGCCACAGCAGAAGCGUUCACGUCGCGGCCGCUGUCAGAUUCUGGUGAAUCUGCGAAUGCUGCUGU	0.477
GGGGGCCACAGCAGAAGCGUUCACGUCGCGGCCGCUGUCAGAUUCUGGUGAAUCUGCGAAUCCUGCUGU	0.316
GGGGGCCACAGCAGAAGCGUUCACGUCGCGGCCGCUGUCAGAUUCGGGUGAAUCUGCGAAUUCUGCUGU	0.766
GGGGGCCACAGCAGAAGCGUUCACGUCGCGGCCGCUGUCAGAUUCAGGUGAAUCUGCGAAUUCUGCUGU	0.776
GGGGGCCACAGCAGAAGCGUUCACGUCGCGGCCGCUGUCAGAUUCUUGUGAAUCUGCGAAUUCUGCUGU	0.605
GGGGGCCACAGCAGAAGCGUUCACGUCGCGGCCGCUGUCAGAUUCUCGUGAAUCUGCGAAUUCUGCUGU	0.724
GGGGGCCACAGCAGAAGCGUUCACGUCGCGGCCGCUGUCAGAUUCUAGUGAAUCUGCGAAUUCUGCUGU	0.769
GGGGGCCACAGCAGAAGCGUUCACGUCGCGGCCUCUGUCUGAUUCUGGUGAAUCUGCGAAUUCUGCUGU	0.838
GGGGGCCACAGCAGAAGCGUUCACGUCGCGGCCUCUGUCCGAUUCUGGUGAAUCUGCGAAUUCUGCUGU	0.602
GGGGGCCACAGCAGAAGCGUUCACGUCGCGGCCUCUGUCGGAUUCUGGUGAAUCUGCGAAUUCUGCUGU	0.963

Variant	self-cleavage
GGGGGCCACAGCAGAAGCGUUCACGUCGCGGCCUCUGUCAGAUUCUGGUGCAUCUGCGAAUUCUGCUGU	0.985
GGGGGCCACAGCAGAAGCGUUCACGUCGCGGCCUCUGUCAGAUUCUGGUGGAUCUGCGAAUUCUGCUGU	1.01
GGGGGCCACAGCAGAAGCGUUCACGUCGCGGCCUCUGUCAGAUUCUGGUGUAUCUGCGAAUUCUGCUGU	0.957
GGGGGCCACAGCAGAAGCGUUCACGUCGCGGCCGCUGUCAGAUUCUGGUGAAUCUGCGAAUUCGGCUGU	0.35
GGGGGCCACAGCAGAAGCGUUCACGUCGCGGCCGCUGUCAGAUUCUGGUGAAUCUGCGAAUUCAGCUGU	0.384
GGGGGCCACAGCAGAAGCGUUCACGUCGCGGCCGCUGUCAGAUUCUGGUGAAUCUGCGAAUUCCGCUGU	0.402
GGGGGCCACAGCAGAAGCGUUCACGUCGCGGCCUCUGUCAGGUUCUGGUGAAUCUGCGAAUUCUGCUGU	0.932
GGGGGCCACAGCAGAAGCGUUCACGUCGCGGCCUCUGUCAGUUUCUGGUGAAUCUGCGAAUUCUGCUGU	0.924
GGGGGCCACAGCAGAAGCGUUCACGUCGCGGCCUCUGUCAGCUUCUGGUGAAUCUGCGAAUUCUGCUGU	0.843
GGGGGCCACAGCAGAAGCGUUCACGUCGCGGCCGCUGUCAGAUUCUGGUGAAUCUGCGAAUUCUGCGGU	0.894
GGGGGCCACAGCAGAAGCGUUCACGUCGCGGCCGCUGUCAGAUUCUGGUGAAUCUGCGAAUUCUGCCGU	0.766
GGGGGCCACAGCAGAAGCGUUCACGUCGCGGCCUCUGUCAGAUUCUGGUGACUCUGCGAAUUCUGCUGU	0.958
GGGGGCCACAGCAGAAGCGUUCACGUCGCGGCCGCUGUCAGAUUCUGGCGAAUCUGCGAAUUCUGCUGU	0.689
GGGGGCCACAGCAGAAGCGUUCACGUCGCGGCCGCUGUCAGAUUCUGGGGAAUCUGCGAAUUCUGCUGU	0.64
GGGGGCCACAGCAGAAGCGUUCACGUCGCGGCCGCUGUCAGAUUCUGGAGAAUCUGCGAAUUCUGCUGU	0.784
GGGGGCCACAGCAGAAGCGUUCACGUCGCGGCCGCUGUCAGAUUCUGGUGAAUCUGCGAAUUCUGCUGC	0.971
GGGGGCCACAGCAGAAGCGUUCACGUCGCGGCCGCUGUCAGAUUCUGGUGAAUCUGCGAAUUCUGCUGA	0.886
GGGGGCCACAGCAGAAGCGUUCACGUCGCGGCCGCUGUCAGAUUCUGGUGUAUCUGCGAAUUCUGCUGU	0.671
GGGGGCCACAGCAGAAGCGUUCACGUCGCGGCCGCUGUCAGAUUCUGGUGCAUCUGCGAAUUCUGCUGU	0.504
GGGGGCCACAGCAGAAGCGUUCACGUCGCGGCCGCUGUCAGAUUCUGGUGGAUCUGCGAAUUCUGCUGU	0.625
GGGGGCCACAGCAGAAGCGUUCACGUCGCGGCCGCUGUCAGAUUCUGGUGAAUCUGCGAAUUCUCCUGU	0.331
GGGGGCCACAGCAGAAGCGUUCACGUCGCGGCCGCUGUCAGAUUCUGGUGAAUCUGCGAAUUCUUCUGU	0.325
GGGGGCCACAGCAGAAGCGUUCACGUCGCGGCCGCUGUCAGAGUCUGGUGAAUCUGCGAAUUCUGCUGU	0.383
GGGGGCCACAGCAGAAGCGUUCACGUCGCGGCCGCUGUCAGACUCUGGUGAAUCUGCGAAUUCUGCUGU	0.547
GGGGGCCACAGCAGAAGCGUUCACGUCGCGGCCGCUGUCAGAUUCUGGUGAAUCUGCGAAUUCUGCUUU	0.929
GGGGGCCACAGCAGAAGCGUUCACGUCGCGGCCGCUGUCAGAUUCUGGUGAAUCUGCGAAUUCUGCUCU	0.842
